In the nanobody polyreactivity screen of Harvey et al. (2022):

Test: yeast display, Sf9 membrane polyspecificity reagent, FACS + sequencing; frameworks hold sequencing errors
How it was run: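 Galactose induction of a Saccharomyces cerevisiae BJ5465 synthetic nanobody display library ran 36–48 hours. The cells were then stained for 1 hour at 4 °C with 10% biotinylated, detergent-solubilized Sf9 membrane reagent, pulled down on streptavidin microbeads and FACS-sorted into low and high (top ~1%) gates on expression and reagent-binding fluorescence. Labels for polyreactivity follow the gate of origin.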

Row | Sequence | polyreactivity (PSR sort gate)
1 | QVQLVESGGGLVQAGGSLRLSCAASGRTFGSYAMGWYRQAPGKERELVAAITWSGGITYFADSVKGRFTISRDNAKNTVYLKMNSLKPEDTAVYYCNVYVSAGEEDEYWGQGTQVTVSS | low polyreactivity
2 | QVQLVESGGGLVQAGGSLRLSCAASGRTFGSYAMGWYRQAPGTERELVAAITWSGTGTYYADSVKGRFTISRDKAKNTVYLQMHSLKPEDTAVYYCNTDRWYAYDWGQGTQVTVSS | high polyreactivity
3 | QVQLVESGGGLVQAGGSLRLSCAASGRTFGTNAMGWYRPAPGKERELVAAISWRGTSTYYADSVKGRFTISRDNAKNTVYLQMNILKPEVTAVYYCAADFSYTSYATRYQGDYWGQGTQVTVSS | low polyreactivity
4 | QVQLVESGGGLVQAGGSLRLSCAASGRTFGTNAMGWYRQAPGKERELVAAISRRGGSTYYADSVKGRFTISRDNAKNTVYLQMNSLKPEDTAVYYCAKTIGLKHEDEYWGQGTQVTVSS | low polyreactivity
5 | QVQLVESGGGLVQAGGSLRLSCAASGRTFGTNAMVWYRQAPGKERELVAAITWRGGSTSYADSVKGRFTISRDNAKNTVYLQMNSLKPEDSAVYYCAVRLRYPGNTFYYWGQGTQVTVSS | high polyreactivity
6 | QVQLVESGGGLVQAGGSLRLSCAASGRTFGTNGMGWYRQAPGKERELVAVITWTGGSTYYADSVKGRFTISRDNAKNTVYLQMNSLKPEDTAVYYCAAKYSHLGYNYWGQGTQVTVSS | high polyreactivity
7 | QVQLVESGGGLVQAGGSLRLSCAASGRTFGTYAMGWYRQAPGKERELVAAISSGGSTYADSVKGRFTISRDNAKNTVYLQRNSLTPEETAVYYCNADFRARNYHYYPRRFKYYYWGQGTQVTVSS | high polyreactivity
8 | QVQLVESGGGLVQAGGSLRLSCAASGRTFGTYAMGWYRQAPGKQRELVAAISSGGSTYADSVKGRFTISRDNAKNTVYLQMNSLKPEDTAVYYCNADYRARNYHYYPRRFKYYYWGQGTQVTVSS | high polyreactivity
9 | QVQLVESGGGLVQAGGSLRLSCAASGRTFGVNTMGWYRQAPGKERELVASISTSGGSTYADSVKGRFTISRDNAKNTVYLQMISLKPEDTAVYYCARTYYWYLRVDYWGQGTQVTVSS | low polyreactivity
10 | QVQLVESGGGLVQAGGSLRLSCAASGRTFGVYAMGWYRQAPGKDSELVEAINNGGSTNYADSVKGRFTISRDNAKNTVYLQINSLKPEDTAVYNCNAVVGYRHWPYYRGEYDYWGQGTQVTVSS | low polyreactivity
11 | QVQLVESGGGLVQAGGSLRLSCAASGRTFGVYAMGWYRQAPGKERELVAAIRWSGGGTYYADSVKGRFTISRDNAKNTVYLQMNSLKPEDTAVYYCNAEIWTEGGYWGQGTQVTVSS | low polyreactivity
12 | QVQLVESGGGLVQAGGSLRLSCAASGRTFGWKARGWYRQAPGKEMELVAAISWSGTNTYDADSVKGRFTISRDNAKNTVYLQMNSLKPEDTAVYYCAARDWTGSWNGYWSWEYNYWGQGTQVTVSS | low polyreactivity
13 | QVQLVESGGGLVQAGGSLRLSCAASGRTFGWSAMGWYRQAPGKERELVAAISSSGGSTYYADSVKGRFTISRDNAKNTVYLQMNSLKPEDTAVYYCAKESYRGGFDYWGQGTQVTVSS | high polyreactivity
14 | QVQLVESGGGLVQAGGSLRLSCAASGRTFGWYDMGWYRQAPGKERELVAAISWSGSSTYYADSVKGRFTISRDNAKNTVYLQMNSLKPEDNAVYYFNDVIRSDLFSYLDGRYDYWGQGTQVTVSS | high polyreactivity
15 | QVQLVESGGGLVQAGGSLRLSCAASGRTFGYNAMGWYREAPGKERELVAAITLGGITHYADSVKGRFTISRDNAKNTVYLQMNSLKPEDTAVYYCAKRGPYYNDDEYYWGQGTQVTVSS | low polyreactivity
16 | QVQLVESGGGLVQAGGSLRLSCAASGRTFGYNAMGWYRQAPGKERELVAAIRTIGDSTYYADSVKGRFTISRDNAKNSVYLQMNSLKPEDTAVYYCAARKLRSRYDYWGQGTQVTVSS | high polyreactivity
17 | QVQLVESGGGLVQAGGSLRLSCAASGRTFGYNAMGWYRQAPGKERQFVAAISWSGGRTYYADSVKGRFTISRDNAKNTVYLQMNSLKPEDTAVYYCAAAAPHLSAKMDYWGQGTQVTVSS | low polyreactivity
18 | QVQLVESGGGLVQAGGSLRLSCAASGRTFGYNAMGWYSQAPGKERELVAAISRSGGRTYYADSVKGRFTISRDNAKNTVYLQMNSLKPEDTAVYYCAAESYHRGYDYWGQGTQVTLSS | high polyreactivity
19 | QVQLVESGGGLVQAGGSLRLSCAASGRTFGYNVMGWYRQAPGKERELVAAISSGGNTYYADSVKGRFTISRDNAKNTVYLQMNSLKPEDTAVYYCNARQYRYLSDRMNYWGQGTQVTVSS | low polyreactivity
20 | QVQLVESGGGLVQAGGSLRLSCAASGRTFGYNVMGWYRQAPGKERELVAVINGRGGSTYYADSVKGRFTISRDNAKNTVYLQMNSLKPEDTAVYYCNVVSGGYFEYDYWGQGTQVTVSS | high polyreactivity
21 | QVQLVESGGGLVQAGGSLRLSCAASGRTFGYYAMGWYRQAPGKERELVAAINWRGDSTYYADSVKGRFTISRDNAKNTVYLQMNSLKPEDTAVYYCAALVRGYDRSIRMDYWGQGTQVTVSS | high polyreactivity
22 | QVQLVESGGGLVQAGGSLRLSCAASGRTFGYYAMGWYRQAPGKERELVAAISSGGGTYYADSVKGRFTISRDNAKNTVYLLMNSLKPEDTAVYYCAATGWVYWGQFDYWGQGTQVTVSS | low polyreactivity
23 | QVQLVESGGGLVQAGGSLRLSCAASGRTFGYYAMGWYRQAPGKERELVAAISTRSGSTYYADSVKGRFTISRDNAKNTVYLQMNSLKPEDTAVYYCAADSYPDYDYWGQGTQVTVSS | low polyreactivity
24 | QVQLVESGGGLVQAGGSLRLSCAASGRTFGYYAMGWYRQAPGKERELVAAITDSGDITYYADSVKGRFTISRDNAKNTVYLQMNSLKPEDTAVYYCAADSYEFWSEVYTGESWGQGTQVTVSS | low polyreactivity
25 | QVQLVESGGGLVQAGGSLRLSCAASGRTFGYYAMGWYRQAPGKERELVAAITGSGGSTYYADSVKGRFTISRDNAKNTVYLQMNSLKPEDTAVYYCAVESVRTRGWIRLDYWGQGTQVTVSS | high polyreactivity
26 | QVQLVESGGGLVQAGGSLRLSCAASGRTFGYYAMGWYRQAPGKERELVASITTGGSTDYADSVKGRFTISRDNAKNTVYLQMNSLKPEDTAVYYCAAKPNPYTKARYYYWGQGTQVTVSS | high polyreactivity
27 | QVQLVESGGGLVQAGGSLRLSCAASGRTFGYYGLGWSRQAPGKERELVAAITGSGGSTYYADSVKGRFTISRDNAKNTVYLQMNSLKPEDTAVYYCNTARRHGQTQGGDYWGQGTQVTVSS | high polyreactivity
28 | QVQLVESGGGLVQAGGSLRLSCAASGRTFGYYVMGCYRQAPGKERELVAAISASGGSTYYADSVKGRFTISRDNAKNTVYLQMNSLKPEDTAVYYCNADYLSQPDWYYFYLFDYWGQGTQVTVSS | high polyreactivity
29 | QVQLVESGGGLVQAGGSLRLSCAASGRTFHAYAMGWSRQAPGKGRELVAAITRTGTTHYADSVKGRFTISRDNAKNTVYLQMNSLKPEDTAVYYCAAQHVRVDAQFVLQGYDYWGQGTQVTVSS | low polyreactivity
30 | QVQLVESGGGLVQAGGSLRLSCAASGRTFHDYAMGWYRQAPGKERELVASISSGGSTYYADSVKGRFTISRDNAKNTVYLQMNSLKPEDTAVYYCAAYYYSTLYYRYDYWGQGTQVTVSS | low polyreactivity
